Test results: the DeepSol protein solubility set

experiment: soluble on expression in E. coli; label from the status in PepcDB or PDB records

Sequence | soluble on expression in E. coli
MDLVKVDDDVVREMEIRRQQHSKKYDRKFEELVKSMSEAHVEPEKMKIPFSRKPTEQETNNLREEWEKEYAALCTSGRTLARPNPNSSIFSKILAQGSPSSAKAGTTRSTPRTSKPPSADENIIFGQKLPETPAPKLLCPPRASPGSSRRLSIFVENLPENHAEIVRGTIFAGREAKIMQNDPENVPSTSTYGEPIRPYLLFARYISLEKGLLDDKNRYKSATDPRFREFLKENIKYKVKQSIKHRTSSEACAQILNYFKTLLQKQEVQVLGGYAPVLQLKTNKDIEYASLCIVHNYVILAERDESLIPLISSHITRLSVFYGYIEQVFCIILLSRSALLRQHPEECMVKFLATSMNPSSPDAIKKWSRQKAHIILFCSVFTKNAYCFSKGFKLKLTDEILWKYVDASTAHILEIPRGSFILWQLITTCKPRLQVDKERWIQLLLNIKFKIIPELDLDSFDGDEAMLMQLKQTIDELLHP | not soluble
MDLYYRPGSAPCRSVLMTAKALGVEFDKKTIINTRAREQFTPEYLKINPQHTIPTLHDHGFALWESRAIMVYLVEKYGKDDKLFPKDVQKQALINQRLYFDMGTLYKSFSEYYYPQIFLKKPANEENYKKIEVAFEFLNTFLEGQTYSAGGDYSLADIAFLATVSTFDVAGFDFKRYANVARWYENAKKLTPGWEENWAGCQEFRKYFDN | soluble
MDMDKRSSDLEAALRIVLQQTLNIVLQAQEKLPEANVVPSTPPTSPSTDIGEQMASFWNIPSPNPPATSATSSTSPEEEIPCICFNCWGNVAAAANSKTWKSPNQADFRSAAAPLTEEKSHA | not soluble
MDMKKWLVATALIATTISGVTQAKEWKTVRFGIEGAYPPFSWTEADGSLKGFDVDMANALCAEMQVECKIVPQDWDGIIPSLLARKYDAIIAAMSITEERKKKVDFTGKYAQIPNKFIAKKGADLAFTKEGLKGVKIGVQRATTHDKYITDNYGDTVDIVRYGSFDEAYLDLANGRIAAVLGDASALEEGMLNKPGGDAYEFVGPSLTDPKWFGEGMGIAVRKQDKELTEKLDAAITALREKGIYQQIQAKYFKYDVYGE | not soluble
MDNILNYPTSTHVDRLVPKTAFYKHLEINTRLKMRFVEDVERIQWLYKLAPSTMNVDTGKTVHEIVMFLVTLKAEDMPDDVFLAIDRQMPRHVVFVLQYANRGRLLLNYKEWVDANKTRFNILKTFRTEWMPLAKVKLELAGSSLDNIYEAFAGQISGFGTTNAADTKQIMALQDELARKRRAAEALQKRVRNERQFAKQMELNSEARALKREIAKLEEVLKTLENN | not soluble
MDNLQKYKPTDKMIDLISDNYSLLQVMSRFGLSLGFGDKTVKEVCELNGVDCRTFLIVVNFMSEGFSRMDGSSEDISIPALIDYLRQAHIYFLDFSLPAIRRKLIEAIDCSQDDVAFLILKFFDEYTREVRKHMDYEEKTVFKYVDALINGNAPRNYQISTFSKHHDQVGEKLTELKNIIIKYCPAKANENLLNAALFDIYACEAGLESHCKVEDYIFVPAILKLERRIRENEK | not soluble
MDPDLWEETGHNSELLLRLLPAARLTAVARDPQYTGRLEQVWQQYRTYLGAPVNRGNLPGLESNQVIAYFSAEFGLSEALPIYAGGLGFLAGDHLKSASDLGLPLVGVGLLYREGYFRQRLDRRGQQREVYSRYDFYQLPLELERRADGSPLEVQVNFPDPDRQVRARVWRARVGRLNLYLLDSDCPGNLEADRLITDRLYGGDLEKRIQQEILLGIGGVRALAALGINATIFHLNEGHSAFLGLERIRQLQARYGLDLASARELATCSNIFTTHTPVPAGIDVFPPYLMDKYFTEYYQSLGLSRHEFLALGRQDPNNQQEPFNMAVLALRLSAWANGVSQLHGQTARRMWQVIWPGVPVAEIPIGAITNGVHTTSWVGEKMAALYDRYLGTAWRELEHHHHHH | not soluble
MDPTEMRYLEEENGAMMKTFKDAVTGFATGKTSLVFIGVEQLVQNFRAKRDFFNGAHITMTKVARTHY | soluble
MDPTRGLCALSTHDLAKFHSLPPARKAAGKRAHLRCYSKLLSLKSWEQLASFLSLPPGPTFTDFRLFFEVTLGRRIADCVVVALQPYPRCYIVEFKTAMSNTANPQSVTRKAQRLEGTAQLCDCANFLRTSCPPVLGSQGLEVLAALVFKNQRSLRTLQVEFPALGQKTLPTSTTGLLNLLSRWQDGALRARLDRPRPTAQGHRPRTHVGPKPSQLTARVPRSARAGRAGGRKGQVGAVGQVCPGAQK | not soluble
MDQFECINVADAHQKLQEKEAVLVDIRDPQSFAMGHAVQAFHLTNDTLGAFMRDNDFDTPVMVMCYHGNSSKGAAQYLLQQGYDVVYSIDGGFEAWQRQFPAEVAYGA | soluble
MDQKEAPSFTEASVHDPSVIKVEDTFYVFGSHLAAAKTEDLRNWTQIATHVHEGNPLIPNVFVELAEAFEWANSNTLWAADVIQLEDGRFYMYYNACQGDAPRSALGVAVADDIEGPYENLGVFLKSGMWGEESPDGTIYDANVHPNAIDPHVFFDEEGKLWMVYGSYSGGIFILEMDPDTGFPLPGQGYGTHLMGGNHSRIEAPYIHYDKETEYYYLYVTFGGLDSTGGYNMRVARSKQPDGPYVDGEGHLMSEVRGAPGTLFDDASIEPYGVKQMGNFLFKRELGERGTGYVSPGHNSVYYDDEVDKIFLFFHTRFPERGEAHEIRVHQMFMNRKGWPVIAPYRYTGESLEKVKAKEVIGDYQWINHGKEISAEIKESVTVRLEKNHKVLGDVTGKWKKVGDYHVELQIDGETYYGVFLRQWDPVAEREVMTFTALSEEGIAIWGSQLEEKTDNEIVDAVYDDLTLEGTIISDVELPTRGMRQTTIAWSSSHEEVLSSSGKVNRPEIGEDDVVVSLTATISKGSAERIKTFELVVPGQTEGGLVAHYPLNGTLENAVDDARFGSGTVTGNRIDNPGGTIAFEQGIDGEAAVFDGTTGIRLPNGLISRNTYTVSFWLNPEQLTEFTTAFFAARSEHHWLSFVPRGHSGMNHDTMLWAGSAQWYDAGTGVKLPVGEWSHVAFSVDNGEIVIYLNGEERFRGENFPNLFTTPNAYFALGVNHWDAPFQGMIDELRIYDGVALTREEIVHLAKQKLEHHHHHH | soluble
MDQLEHLSLVSKVLSEVENHFGVVEKDVAEFVIHLAQENPTFDKLKKALDSQGLGDQFDDSLTATILRIVQSMTAVKKKNKKGGDSKEDIKDSHKITLISDAKEEIKARLPALAMANTAKEKEDNEDDLMAQLEKMEGRYESEKRLQKESDSKRNRSRSRSRSRDRKRRRSRSGDRDRRRRSRSREDRRDRDRRDRDRDRDRGRGDRRGDDRQRDRRDRRDDGGARKSEVAEIGKIYDGRVNSIQSFGAFITLEGFRQKQEGLVHISQIRNERVQTVADVLKRGENVKVKVNKIENGKISLSMKEVDQNSGEDLNPRETDLNPDAIGVRPRTPPASTSSWMNPEASGVGQGPSTSIGGGKARVRISTPERWELRQMQGAGVLTATDMPDFDEEMGVLRNYDDESDGEDIEIELVEDEPDFLRGYGKGGAEIEPVKVVKNPDGSLAQAALMQGALSKERKETKIQAQRERDMDTQKGFSSNARILDPMSGNQSTAWSADESKDRNNKMKEMPEWLKHVTAGGKATYGRRTNLSMVEQRESLPIFALKKNLMEAMIDNQILVVVGETGSGKTTQMTQYAIEAGLGRRGKIGCTQPRRVAAMSVAKRVAEEYGCKLGTDVGYTIRFEDCTSQDTIIKYMTDGMLLRECLIDPDLSGYSLIMLDEAHERTIHTDVLFGLLKAAARKRPELKLIITSATLDSVKFSEYFLEAPIFTIPGRTFPVEILYTREPESDYLEAAHITVMQIHLTEPPGDVLVFLTGQEEIDTSCEVLYERMKSMGPDVPELIILPVYGALPSEMQTRIFDPAPAGKRKVVIATNIAETSLTIDGIFYVVDPGFVKQKIYNPKSGMDSLVVTPISQAAAKQRSGRAGRTGPGKCYRLYTERAFRDEMLPTPVPEIQRTNLASTLLQLKAMGINNLIDFDFMDAPPLDSMITALNTLHTLSALDGDGLLTKLGRRMAEFPLEPSLSKLLIMSVDLGCSEEVLTIVAMLNVQNIFYRPKEKQDHADQKKAKFHQPEGDHLTLLAVYNSWKNHHFSQPWCFENFIQVRSMKRAQDIRKQLLGIMDRHKLLMVSCGRDVSRVQKAICSGFFRNAAKRDPQEGYRTLTDGQNVYIHPSSACFQQQPEWVVYHELVMTTKEYMREVTAIDPKWLVEFAPSFFKIGDSTKLSTFKRNQKIDPLFDKYADANAWRITRVKKRIYNPNK | soluble
MDQLQIKDLEMFAYHGLFPSEKELGQKFIVSAILSYDMTKAATDLDLTASVHYGELCQQWTTWFQETSEDLIETVAYKLVERTFESYPLVQEMKLELKKPWAPVHLSLDTCSVTIHRRKQRAFIALGSNMGDKQANLKQAIDKLRARGIHILKESSVLATEPWGGVEQDSFANQVVEVETWLPAQDLLETLLAIESELGRVREVHWGPRLIDLDLLFVEDQILYTDDLILPHPYIAERLFVLESLQEIAPHFIHPILKQPIRNLYDALKK | soluble
MDQQSTRTDITVNVDGFWMLQALLDIRHVAPELRCRPYVSTDSNDWLNEHPGMAVMREQGIVVNDAVNEQVAARMKVLAAPDLEVVALLSRGKLLYGVIDDENQPPGSRDIPDNEFRVVLARRGQHWVSAVRVGNDITVDDVTVSDSASIAALVMDGLESIHHADPAAINAVNVPMEEMLEATKSWQESGFNVFSGGDLRRMGISAATVAALGQALSDPAAEVAVYARQYRDDAKGPSASVLSLKDGSGGRIALYQQARTAGSGEAWLAICPATPQLVQVGVKTVLDTLPYGEWKTHSRV | soluble
MDRFENMNAFVRVVETGSISAAADRMDIAKSVVSRRLKELEEHLGVELFHRTTRQMNLTDSGRAFYQQSVRILADVLEAEHATSQFHGRLKGHLKVAVPLSFGLMHLGAAISTFLQTHPDIEFDLDFNDRQVDLLAEGFDLAIRIANLPDSSLIARRLAPIQAVMCASPAYLERMGTPQAPEELIRHRCLVYNLVSHSDNWNVYGTTGELIKTRIIPYLKASNGEFLRDAAVDGLGIVLLPTFIVYREIQRGALIPILTGYHYAQLAAYAIYPQTRHLSQRVRAFVDFLSQRFEGMPYWDACLNQ | not soluble
MDRHTTEGWRRWAARLGAAAMALLLAACAAPRQQAASVDELPSWNDGPSRTAIVEFVRAVTRSGGPDFVAADERIAVFDNDGTLWSEQPMYFQMLFALDRVKSMAPRHPDWARRQPFKAALQDDHAALAKGGDVALMKIVGATHTDMSTDTFTRSVRYWASTARHPRFDRLYTELTFAPMRELLDYLRAHGFKTYIVSGGETEFMRSWTQQAYGIPPEQVIGSSFVTTYGVRDGEPTLWRHGKLEFNDDGPGKPVAIQRYIGRRPILAFGNSDGDLQMLQWTAAGDGKRFAGLVHHTDAQREWAYDRDSRIGRLDRALDEARRQDWTVVDMKTEWKRVYAFEQP | not soluble
MDRIQENQKKATNLCELYADGNDDDSEKEQQDRGLDAQFLLRSTPEDVEKYMIHVRKQLMEGEGECLVELGAPINSNSKNPKSGLSEEDLDKAADAQLKILEKIPAVGTKVIRRKQTGGGSLFTEVWIIRDPPTEKDFIEARVAVVGNVDAGKSTLLGVLTHSALDDGRGAARTKLFRHKHEFESGRTSSVGNDILGFDVHGNIVNKPDPHNHNLDWVQIGSDCAKLVTFIDLAGHEKYLKTTIFGMTGHMPDYTMLMIGANMGIIGTTKEHLSLALSLHVPVYLVVTKIDMCPANILEETMKNITRLVRSAKKLPILVRNMDDVVHAAVNFPSKKVCPIFQVSNVEGTNLPLLRQFLNIVPLRRQLNENDPAHFQIDDIYWVDGVGTIASGTLLSGTIRLNDILLLGPTSNGDFMPIPIKSIHRKRMPVGIVKCGQSASFALKKIPKKDVRKGMVLVDPKVKPVASMVFEAEILVLHHPTTIKPNYQAMLHIGSVRQTATLVSMGKEVLRTGDRDKVQFKFIRQPEYIRPGTKMVFREGRTKAVGTVSSVVPQESLAQQRAKQKDGRQKQYGKKSMGPKPPNGKPKEKIEKKLDALSIEQLTSAASTSTSST | not soluble
